Molecular target: CDK2 protein (purchased from Sino Biological Inc.) (UniProt P24941 1-298)
Assay: SPR; CD147ICD immobilised on a CM5 chip; CDK2 injected at 30 µL/min; BSA signal subtracted
Conditions: both partners purified

B1: intracellular portion of CD147 (ICD, 230-269) (domain or fragment)
chain: EKRRKPEDVLDDDDAGSAPLKSSGQHQNDKGKNVRQRNSS
notes: CD147 (basigin), human, residues 230-269, intracellular portion; also called CD147’s intracellular domain; CD147’s intracellular segment; source: E. coli OrigamiB (DE3), purified (expressed and purified in the same way as for CD147)
**Q.** B1 was tested. Which Kd did it give?
**A.** 16.7 µM

Source: PMC8632965, “CD98-induced CD147 signaling stabilizes the Foxp3 protein to maintain tissue homeostasis” (Cellular and Molecular Immunology, 2021)
